# ± gives the half width of the 95% confidence interval.
# Assay: folding stability dG unfold (combined trypsin and chymotrypsin); higher = more stable
# Procedure: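 Folding stability of de novo designed mini-proteins (<80 aa, no Cys; designed by TrROS, TrMRF, ProteinMPNN and the joint model) was measured by cDNA display proteolysis with trypsin and chymotrypsin. Each protease was used at 11 concentrations in a threefold dilution series plus a no-protease condition. K50 was inferred by Bayesian fitting of sequencing counts, and dG unfold was derived against a sequence-predicted unfolded-state K50 (Tsuboyama et al. method). Sequences shown include variable-length N-terminal GS-type padding (SAGGSAGG...) inside a display construct carrying a PA tag. Rows were kept only if the AF2 dimer inter-PAE was >15, to exclude likely homo-oligomers.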
row,Sequence,folding stability dG unfold [kcal/mol]
1,SAGGAMTPDGTSVTIPYEAKTPTGEASEEEARERIEEELAARPDVALTRVEFEREGDRIKATVYTRVPRSAG [r5_688_JUSTAS],< -1
2,SAGGSAGGSAGGSTVLRLERVPGTGLLVERLVTPSGSGYSVEVTVRPVGEEEREALPLGSAGGSAGGSAGGS [r10_291_JUSTAS],< -1
3,SAGGSAGGSATIRPGEPIRIKIKYPNPDGKPQERTYNGNVPPGSTLEELADNFPGYKVEIEKSAGGSAGGSA [r18_279_TrROS],< -1
4,SAGGTIKDLLRELPGFDSVEVDEDSGVIYVRNPDRYYKIEIPVQKQPDDDGKDRPITPVKIEPYPPNSAGGS [r16_65_TrROS],< -1
5,SAGGMEEKVINIPLSNGEEATITITIENEPGKNKAIVPINSKSVPAEELAKKLKKELPESITDLTVVKSAGG [r13_404_JUSTAS],< -1
6,SAGGSAGGSAGGMKITVKTSYDPSRPVFYEEVYPPGGEPISRKVIEIPPAEPKLIEELLSAGGSAGGSAGGS [r10_717_JUSTAS],< -1
7,SAGGSAGGSAGEKPIYYRIKHRNPANGQKVKHEIPFPPNDADEIKEQMEKQPGIDEIEPFSAGGSAGGSAGG [r17_438_TrROS],< -1
8,SAGGSAGGSAGGMTETIPVSPSELDEVIEEAKKKGLKKIVLKDPNSSKKTVITKDKVEDESAGGSAGGSAGG [r7_564_JUSTAS],< -1
9,SGSMVVVPESDLEAAIATARALVAAGEDTLLFFSPEAREAVQRAVPEVRVEPVPGVPPTPPRPESVARLRSA [r9_639_JUSTAS],< -1
10,SAGGSAGGYEIPIKIKITNPDNNKPVTFEIPIRYDKDNGRPPSPEQIARELAERSPGFKITEIESAGGSAGG [r6_821_TrROS],< -1
11,SAGGSAGGSAGGMLPIPKIEVKPGDEEEAKKTKEKLKKELEEKLGKKAKNLKVDFNPSLSAGGSAGGSAGGS [r10_1216_JUSTAS],< -1
12,SMTITLEKTLPDGSKVTITIPITKVPGKPLYKATVTVTTTKPGGTPSSKTYTFDFTSEEEAVEKAKEILASA [r9_337_JUSTAS],> 6
13,SAGGSAGGSAGGMVLELEGLGEEEIKALVREIPEDEPVTFVIKSKNNKTSVIPSEEILESAGGSAGGSAGGS [r10_732_JUSTAS],< -1
14,SAGGSAGGSNVEIDTTRTPDRYTVKIRFPDNGKKVEIPFDPGQPPNQAKDRAKELAKKNGIKISAGGSAGGS [r12_764_TrROS],< -1
15,GMILFKVKLTDPKGKKEIAEVDIPIPVPEEVLPAMPEELKEKLREEAEKAAEEIREKLGNVLVEPEFTLLES [r1_115_JUSTAS],< -1
16,SAGGSAGGSAGGMKVETRTITDPGGIEKVKEDYPGYTVEKTEKLPDGSTKVTLKYPILKSAGGSAGGSAGGS [r10_764_JUSTAS],< -1
17,SAGGSAGGSAPKPIERVEVGSFTLPPGRRVFPVRARIRGTGEVVVVATDGAPVEEVLKAVEASAGGSAGGSA [r18_345_TrMRF],< -1
18,SAGGSAGGSAGGGSPAEQLREMAKQIPPVEIRFPGPGKERTIPDPDNFQEKGWKITEIEFSAGGSAGGSAGG [r7_504_TrROS],< -1
19,SAGGMTLESEVTTLPDGTVVTKTTTVYPDGTVTTKTTTTSVPAGPPTVVRTLPDGSRVRDPTGEWTALSAGG [r13_151_JUSTAS],< -1
20,SAGGSAMPVKIELVERKRDPNSDTYYATVKITNPNKTITLPIKLDVPEEEAEKEVKEKAEEIAKKGSAGGSA [r15_979_JUSTAS],< -1
21,SAGGDWLDNFPPGWKIKLERPNGKPKTYTIPPNSSPDDLKKLKLPNGYKLKIDEVTPNGQMTFRLPPSAGGS [r16_103_TrROS],< -1
22,SAGGSAGGSSLAEEIARLLGLESETLSESVSPTPRSLTLTRFKPPEDGELIVFYDGEVPTILPSAGGSAGGS [r12_279_JUSTAS],< -1

row,Sequence,folding stability dG unfold [kcal/mol]
1,SAGGSAGGSAGGDADKALPVGFELVEAETVELGDNPVLLVRLKGKNGEQLLLVPPDAPISAGGSAGGSAGGS [r10_968_TrMRF],< -1
2,SAGGSAGGSAGGSTKSINFKNPSNIRDALREAQDEGVKPVVIYFPDGKTRKIPPGDPITSAGGSAGGSAGGS [r4_260_TrROS],< -1
3,SAGGSAGGITVTIDMNEGYYRIKVEYPGNGKKREIPISGPPDDLASELEDEFGYPVKDVEIEKWSAGGSAGG [r6_763_TrROS],< -1
4,SAGGSAGGSANFDINIEPHPDKDYLVITVTIPPGMPPGQKVRTWVIDPPDGKILEPEPIKIPDSAGGSAGGS [r12_564_TrROS],< -1
5,SAGGSAGGSASSTTVPLEIPAPEGAVVELTFPDGTTVKATVTPRPDGSYTLKVGNGEIVAPRSAGGSAGGSA [r18_372_JUSTAS],< -1
6,SAGGDYVSITIDDPNPGMPPEELAQEIIRELNPDGFPIKPKKIEPERHDGRPKVTITFRVDDPEAIKKSAGG [r13_979_TrROS],< -1
7,SAGGSAGGSAGAAEFELSGTVRIGDVPVKVTPRLYVPEDGGYRAEPRVELYFREDTPGYRSAGGSAGGSAGG [r11_121_TrMRF],< -1
8,SAGGSAGGSAGGTIEGLPKEQLRDIFKDHGMPPDEFPPGQPVQFNIPNKNPIKVRVTDLSAGGSAGGSAGGS [r10_623_TrROS],< -1
9,SAGGSAGGMKTEVVEETVPLRNEDGKLLPSDALLETELPDKKVLTLVERDPNSDTVKTTRVILESAGGSAGG [r6_659_JUSTAS],< -1
10,SAGGSAGGSYPFRIKIVNPNGKKIIPIPYQFDPEDGKLEPFTEDQLDEIAKQLGPNFKKIEIYSAGGSAGGS [r12_514_TrROS],< -1
11,SAGGITLKEIREALKKGHMMRIEGPDGGKRRIPIDDLKDMPGIKPGMPLEDLKVRKIEWVPPDDGQPMSAGG [r13_587_TrROS],< -1
12,SAGGSAGGSASSTVLETEEEPVGKVTTEKVLVPRPDGTPVLRTKLVYRPKDGSLTSETTSLSAGGSAGGSAG [r3_94_JUSTAS],< -1
13,SAGGSAGGSAGMTVEVKKLSTPRYEKIITITTETTVKDPNSAKPLTTETVTTIERDEVSLSAGGSAGGSAGG [r17_124_JUSTAS],< -1
14,SAGGSAGGSPKWKVEPIGNRIRIMIPDGPYYTARLPDDVKLDLDEGKFKFPPGLEVEPVPLKESAGGSAGGS [r20_158_TrROS],< -1
15,SAGGSVRAVEVRLYRPEGDFPVIEIDVEAPASFPDDPELRERAARSVAGPLTRELLEELGLVPIGPSAGGSA [r2_306_TrMRF],-0.793 ± 0.52
16,SAGGSAGGSAGMVETTSEEEAAAVIAEARAAGVPVTLVLKNPDGTTVTTPVEVVVPPDAPSAGGSAGGSAGG [r17_462_JUSTAS],< -1
17,SAGGSAGGSAGGYRIKIKMPNGRPREIPLEPDDPEEVKEQAKELSSRGYDVTKVEVEPPSAGGSAGGSAGGS [r10_231_TrROS],< -1
18,SAGGSAGGSAGPWKVITHTIDIPPGADELPIRLPGNGIEAKIMSVDPGNGTITVEIYVPDSAGGSAGGSAGG [r17_198_TrROS],< -1
19,SAGGSAGGMSLIVKSEEEAREILKKLGWKVKKLNITKLKDESGTVKIPVEIEPVPKGKLSEELISAGGSAGG [r6_981_JUSTAS],< -1
20,SAGGSAGGSDPNIKVEIWHPNNGQPRTFPAGDSIDELAENMPGPVQIKIEYPGKEKTLMIPFKSAGGSAGGS [r12_1056_TrROS],< -1
21,SAGDRKVIHINGFEPEQFRKIIREAKDKGPPGDRIWIPSPEYVDELKELDPNLPVEVHNMDNGEWQEIESAG [r5_391_TrROS],< -1
22,SAGGMPPGQKKTITLEMNEPGYFRIHNPNGGQEREFPINPDQSPSEFLDWAEDFAEDYGYPVEIEWHSAGGS [r16_446_TrROS],< -1

# — the supplement of paper PMC12764529
